The text below walks through data of US6479032 (DIATIDE, dated 2002).

Assay [1] has as its target T1, CT receptor of human breast tumor cell lines T-47D and MCF-7 (human, UniProt P30988 25-474).
T1 construct: whole, on cells; Native receptor; also called calcitonin receptor
T1 sequence (looked up): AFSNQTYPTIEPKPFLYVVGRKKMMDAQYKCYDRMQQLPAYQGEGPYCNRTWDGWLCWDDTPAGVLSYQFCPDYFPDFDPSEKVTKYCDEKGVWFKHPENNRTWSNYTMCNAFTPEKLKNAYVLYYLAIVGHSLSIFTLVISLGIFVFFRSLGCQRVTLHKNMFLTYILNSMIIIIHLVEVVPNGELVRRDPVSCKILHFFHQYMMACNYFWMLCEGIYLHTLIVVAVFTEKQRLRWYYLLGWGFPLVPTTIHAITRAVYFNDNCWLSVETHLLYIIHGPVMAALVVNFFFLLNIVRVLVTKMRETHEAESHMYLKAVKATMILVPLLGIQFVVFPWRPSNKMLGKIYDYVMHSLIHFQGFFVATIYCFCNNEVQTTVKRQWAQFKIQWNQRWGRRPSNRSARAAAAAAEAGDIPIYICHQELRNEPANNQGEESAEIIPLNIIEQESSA
The assay can be described thus: displacement of 125I-salmon CT, whole T-47D cells. An excerpt:
(§1) Assays using microsomal membrane fractions of rat brain and T47D cells (obtained from the American Type Culture Collection, Rockville, Md., ATCC Accession No. HTB-133) were used to identify analogs with high affinity for the CT receptor according to the method of Fisher et al. (1977, *British J. Cancer* 35: 777–784). Briefly, tissue was minced and homogenized. The membranes were washed several times, assayed for protein content and used in the binding assay. […] Both uncomplexed and ReO complexed reagents were tested.
(§2) Similar experiments were performed with additional peptide reagents within the scope of the invention, using whole cells. Binding was determined as described above.

In assay [2] the target is T1, CT receptor of human breast tumor cell …. Put plainly: displacement of 125I-salmon CT, whole MCF-7 cells.
Source text: as §1, §2
In general terms: Displacement assays read how much labelled ligand stays bound in the presence of the test substance.

For assay [3] the target is unchanged. Put plainly: displacement of 125I-salmon CT, T-47D cell membranes.
Source text: as §1, §2

Starred links: 1 amine or outer side, 2 acyl side, 3 side chain; linkers in the order of their positions; H or OH if unused. Positions of bridges follow the written chain, without caps; N, C: chain ends. Non-standard residues stand in square brackets, D forms with d. Groups on a side chain read outwards from the residue. No end group written: not given here. Hhc = homohomocysteine, O=C([C@H](CCCS[*:3])N[*:1])[*:2]; εLys = N[C@@H](CCCCN[*:1])C(=O)[*:2]; Asu = N[C@@H](CCCCCC(=O)O)C(=O)O; hCys = N[C@@H](CCS)C(=O)O

In general, IC50 refers to the concentration needed to halve the response being measured.

B1: CH2CO.SNLST.Cys.VLGKLSC(CH2CO.(β-Dap)KCK.amide)ELHKLQTYPRTNTGSGTP.amide•ReO (peptide)
peptide: {CH2CO}-SNLSTCVLGKLSC([CH2CO-βDap-Lys-Cys-Lys-NH2])ELHKLQTYPRTNTGSGTP-NH2
modifications: thioether N-6; also: ReO complex
notes: Oxorhenium complex; also called Peptide 13 ReO complex
In the case of B1, the IC50 in assay [1] came to 2.9 nM.

B2: CH2CO.SNLST.Cys.VLGKLSC(CH2CO.(ε-K)GCE.amide)ELHKLQTYPRTNTGSGTP.amide•ReO (peptide)
peptide: {CH2CO}-SNLSTCVLGKLSC([CH2CO-εLys-Gly-Cys-Glu-NH2])ELHKLQTYPRTNTGSGTP-NH2
modifications: thioether N-6; also: ReO complex
notes: Oxorhenium complex; also called Peptide 14 ReO complex
Take B2: the IC50 in assay [1] was found to be 2.6 nM; in assay [2] it was 1.9 nM.

B3: CH2CO.SNLST.Hcy.VLGKLSC(CH2CO.(ε-K)GCE.amide)ELHKLQTYPRTNTGSGTP.amide•ReO (peptide)
peptide: {CH2CO}-SNLST[hCys]VLGKLSC([CH2CO-εLys-Gly-Cys-Glu-NH2])ELHKLQTYPRTNTGSGTP-NH2
modifications: thioether N-6; also: ReO complex of chelator on Cys13
notes: Oxorhenium complex; also called Peptide 10 ReO complex
The molecule B3 had a 50% inhibitory concentration (IC50) in assay [1] of 0.89 nM.
For {CH2CO}-SNLST[Hhc]VLGKLSC([CH2CO-Gly-Gly-Cys-Lys-NH2])ELHKLQTYPRTNTGSGTP-NH2 (thioether N-6, also called Peptide 4) [CH2CO.SNLST.Hhc.VLGKLSC(CH2CO.GGCK.amide)ELHKLQTYPRTNTGSGTP.amide], the 50% inhibitory concentration (IC50) in assay [3] turned out to be 2.6 nM.

B4: CH2CO.SNLST.Cys.VLGKLSC(CH2CO.GGCK.amide)ELHKLQTYPRTNTGSGTP.amide•ReO (peptide)
peptide: {CH2CO}-SNLSTCVLGKLSC([CH2CO-Gly-Gly-Cys-Lys-NH2])ELHKLQTYPRTNTGSGTP-NH2
modifications: thioether N-6; also: ReO complex
notes: Oxorhenium complex; also called Peptide 12 ReO complex
On to B4, for which the IC50 in assay [1] worked out at 1 nM; in assay [2] it was 5.2 nM.

B5: CH2CO.SNLST.Hcy.VLGKLSC(CH2CO.(β-Dap)KCK.amide)ELHKLQTYPRTNTGSGTP.amide•ReO (peptide)
peptide: {CH2CO}-SNLST[hCys]VLGKLSC([CH2CO-βDap-Lys-Cys-Lys-NH2])ELHKLQTYPRTNTGSGTP-NH2
modifications: thioether N-6; also: ReO complex of chelator on Cys13
notes: Oxorhenium complex; also called Peptide 9 ReO complex
B5 came in with an IC50 in assay [1] of 0.84 nM.

B6: CSNLSTCVLGKLSQELHKLQTYPRTNTGSGTP-NH2 (salmon calcitonin) (ligand)
peptide: CSNLSTCVLGKLSQELHKLQTYPRTNTGSGTP-NH2
modifications: disulfide 1-7
notes: Unlabeled salmon calcitonin, bought (Sigma); also called salmon CT; sCT
Molecule B6 gave an IC50 in assay [2] of 12.3 nM.

B7: CH2CO.SNLST.Hcy.VLGKLSC(CH2CO.GGCK.amide)ELHKLQTYPRTNTGSGTP.amide•ReO (peptide)
peptide: {CH2CO}-SNLST[hCys]VLGKLSC([CH2CO-Gly-Gly-Cys-Lys-NH2])ELHKLQTYPRTNTGSGTP-NH2
modifications: thioether N-6; also: ReO complex of chelator on Cys13
notes: Oxorhenium complex; also called Peptide 8 ReO complex
Regarding B7, the IC50 in assay [1] came to 0.83 nM; in assay [2], 4.8 nM.

B8: SNLST.Asu.VLGKLSC(CH2CO.(β-Dap)KCK.amide)ELHKLQTYPRTNTGSGTP.amide•ReO (peptide)
peptide: SNLST[Asu]VLGKLSC([CH2CO-βDap-Lys-Cys-Lys-NH2])ELHKLQTYPRTNTGSGTP-NH2
modifications: lactam N-6; also: ReO complex of chelator on Cys13
notes: Oxorhenium complex; also called Peptide 16 ReO complex
B8: the half-maximal inhibitory concentration (IC50) in assay [1] turned out to be 2.7 nM; in assay [2], 8 nM.
In the case of {CH2CO}-SNLST[Hhc]VLGKLSCELHKLQTYPRTNTGSGTP-NH2 (thioether N-6, also called Peptide 3) [CH2CO.SNLST.Hhc.VLGKLSCELHKLQTYPRTNTGSGTP.amide], the IC50 in assay [3] turned out to be 1.6 nM.

B9: SNLST.Asu.VLGKLSC(CH2CO.(β-Dap)KCK.amide)ELHKLQTYPRTDVGAGTP.amide•ReO (peptide)
peptide: SNLST[Asu]VLGKLSC([CH2CO-βDap-Lys-Cys-Lys-NH2])ELHKLQTYPRTDVGAGTP-NH2
modifications: lactam N-6; also: ReO complex of chelator on Cys13
notes: Oxorhenium complex; also called Peptide 18 ReO complex
As to B9, the IC50 in assay [1] was 0.55 nM; in assay [2], 7 nM.
The corresponding values for {CH2CO}-SNLST[Hhc]VLGKLSC([CH2CO-βDap-Lys-Cys-Lys-NH2])ELHKLQTYPRTNTGSGTP-NH2 (thioether N-6, also called Peptide 5) [CH2CO.SNLST.Hhc.VLGKLSC(CH2CO.(β-Dap)KCK.amide)ELHKLQTYPRTNTGSGTP.amide] are 0.42 nM and 5.8 nM.

B10: CH2CO.SNLST.Hhc.VLGKLSC(CH2CO.(ε-K)GCE.amide)ELHKLQTYPRTNTGSGTP.amide•ReO (peptide)
peptide: {CH2CO}-SNLST[Hhc]VLGKLSC([CH2CO-εLys-Gly-Cys-Glu-NH2])ELHKLQTYPRTNTGSGTP-NH2
modifications: thioether N-6; also: ReO complex of chelator on Cys13
notes: Oxorhenium complex; also called Peptide 6 ReO complex
For the molecule B10, the IC50 came out at 0.33 nM in assay [1] and 3.3 nM in assay [2].
